Two substances from patent publication US20110265202A1 can be followed below.

The target of assay [1] is PrpS1-GFP fusion protein expressed in Arabidopsis thaliana pollen (line BG16) (Papaver rhoeas). In words: cell-based or functional assay.
Assay [2] addresses PrpS8 (Papaver rhoeas pollen S8 protein) on P. rhoeas pollen (Papaver rhoeas). In words: cell-based or functional assay.

For the substance “recombinant Papaver rhoeas pistil S1 protein (PrsS1) (ligand)”, in assay [1], the pollen germination of BG16 Arabidopsis pollen, in vitro SI assay is 50 % reduction; the pollen viability (Evans blue) at t=2 h, BG16+PrsS1 against WT+S1 pollen was 35 times lower; the pollen viability (Evans blue) at t=4 h, BG16+PrsS1 against WT+S1 pollen turned out to be 53 times lower; the pollen viability (Evans blue) at t>8 h, BG16+PrsS1 against WT+S1 pollen turned out to be 45 times lower.
“recombinant Papaver rhoeas pistil S8 protein (PrsS8) (ligand)” registered a % germination of P. rhoeas S1S8 pollen with both PrsS1 and PrsS8 added (29.7% with S1 alone) in assay [2] of 1%.
